Experimental data reported in paper PMC3379838.

What was measured:
purified protein [1] = substrate: CC1CS(=O)(=O)CCN1/N=C/c1ccc([N+](=O)[O-])o1; assay: purified protein; format: biochemical, Trypanosoma cruzi; conditions: 100 μM NADH fixed
purified protein [2] = substrate: O=C(Cn1ccnc1[N+](=O)[O-])NCc1ccccc1; assay: purified protein; format: biochemical, Trypanosoma cruzi; conditions: 100 μM NADH fixed; benznidazole 10–100 μM

B1: TcNTR (61S, catalytic domain) (Trypanosoma cruzi strain CL Brener) (protein)
chain: LDAMKRVVHERRSCKRFDPTKSIDLDVVSDLLAMTVRAPTALNLQPWVAVVIHEEEQRETLSRAALGQPQPRDAPVTVVFAGDMEPESNAPAALEMGLESGYYHSLYGAAYLRHAYYLLHGGPCEVMSHVKAIVSAWYSESTGNAMLSVPRNKQAYAWKQVMIPATTFLYLATAAGFDTAILEGFDEAQVRRVAGLPPRFTVPVIISVGHGAKNGFHSVRSPRFPTKHLVRWGKF
B1 gave a Km (purified protein [1]) of 15.5 ± 3.5 µM and a Km (purified protein [2]) of 28.0 ± 2.7 µM.
